Tests used:
[1] = target: adenovirus type 5 (Ad5) hexon, on purified Ad5 vector particles (human adenovirus type 5) (UniProt P04133); experiment: SPR; biotinylated virus coupled to a streptavidin (SA) chip (Ad5 482 RU, Ad26.HVR5C 484 RU), T200; 2-fold serial dilutions of hFX from 30 μg/mL injected at 30 μL/min; 10 mM HEPES pH 7.4, 150 mM NaCl, 5 mM CaCl2, 0.005% Tween20; 1:1 binding model
[2] = target: Ad26.HVR5C hexon, on purified vector particles (human adenovirus type 26); experiment: as above

Substance “human coagulation factor X (natural protein)” has a Kd [1] of 2.33 nM, a koff [1] of 0.00305 s⁻¹ and a kon [1] of 1.31e+06 M⁻¹ s⁻¹. For the same substance, the Kd [2] was 3.46 nM, the koff [2] was 0.0107 s⁻¹ and the kon [2] was 3.08e+06 M⁻¹ s⁻¹.

Source: article PMC4450073
